Tests used:
[1] = target: T1, HrAgo1 (Candidatus Harpocratesius repetitus …, UniProt A0AAT8XUE3 1-817); test: single-molecule FRET; 500 mM NaCl; majority dwell > 200 s, plus transient sub-population; smFRET: 50 mM Tris-HCl pH 8.0, 500 mM NaCl (50 mM for EfPiwi), 1 mM Trolox, glucose oxidase/catalase, 22 C; cryo-EM: 5 mM HEPES pH 7.5, 250 mM KCl, 5 mM MgCl2; conditions: protein: recombinant, tags: His-MBP removed by TEV, label: Cy5 guide, Cy3 target, 3' biotin target
T1 sequence: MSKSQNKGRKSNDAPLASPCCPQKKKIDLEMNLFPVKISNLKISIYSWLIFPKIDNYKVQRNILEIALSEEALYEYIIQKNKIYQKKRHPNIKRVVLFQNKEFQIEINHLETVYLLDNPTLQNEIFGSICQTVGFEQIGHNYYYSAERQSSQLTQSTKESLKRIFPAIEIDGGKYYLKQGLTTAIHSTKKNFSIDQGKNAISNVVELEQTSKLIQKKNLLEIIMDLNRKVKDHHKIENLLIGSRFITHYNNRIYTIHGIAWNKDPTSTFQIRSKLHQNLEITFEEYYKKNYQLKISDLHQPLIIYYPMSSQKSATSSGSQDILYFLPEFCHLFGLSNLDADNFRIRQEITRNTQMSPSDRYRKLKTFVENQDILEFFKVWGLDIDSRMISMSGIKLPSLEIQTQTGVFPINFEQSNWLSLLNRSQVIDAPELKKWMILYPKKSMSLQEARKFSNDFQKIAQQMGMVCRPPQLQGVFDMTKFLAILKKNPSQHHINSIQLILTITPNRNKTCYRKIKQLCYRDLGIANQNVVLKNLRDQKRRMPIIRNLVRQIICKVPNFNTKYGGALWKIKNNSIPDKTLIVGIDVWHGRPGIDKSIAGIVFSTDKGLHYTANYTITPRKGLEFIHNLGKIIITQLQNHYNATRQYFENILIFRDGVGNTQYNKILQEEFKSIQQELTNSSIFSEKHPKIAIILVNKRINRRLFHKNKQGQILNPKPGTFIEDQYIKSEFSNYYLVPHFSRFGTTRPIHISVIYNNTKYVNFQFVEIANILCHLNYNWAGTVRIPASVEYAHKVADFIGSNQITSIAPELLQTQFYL

[2] = target: T1, HrAgo1; test: single-molecule FRET; 500 mM NaCl; stable binding, dwell > 200 s; smFRET: 50 mM Tris-HCl pH 8.0, 500 mM NaCl (50 mM for EfPiwi), 1 mM Trolox, glucose oxidase/catalase, 22 C; cryo-EM: 5 mM HEPES pH 7.5, 250 mM KCl, 5 mM MgCl2; conditions: protein: recombinant; tags: His-MBP removed by TEV; label: Cy5 guide, Cy3 target, 3' biotin target; guide nt 2-16 pair
[3] = target: T1, HrAgo1; test: cryo-EM structure; 5 mM MgCl2; smFRET: 50 mM Tris-HCl pH 8.0, 500 mM NaCl (50 mM for EfPiwi), 1 mM Trolox, glucose oxidase/catalase, 22 C; cryo-EM: 5 mM HEPES pH 7.5, 250 mM KCl, 5 mM MgCl2; conditions: protein: recombinant; tags: His-MBP removed by TEV; single strand; only 6 nt modelled

B1: guide N6 / target N6 (dsRNA)
RNA 1: UGAGGUAUUUUUUUUUUUUUUU
RNA 2: UUUUUUUUUUUUUUUUUUUCUACCUCUUUUUUUUUUUUUUUUUUUUUUUUUUUUUUU
modifications: guide 5' phosphate; 5-LC-N-U at guide nt 9 and target nt 11
[1]; guide nt 2-7 pair
  binding result: binds

B2: guide N8 / target N8 (dsRNA)
RNA 1: UGAGGUAGUUUUUUUUUUUUUU
RNA 2: UUUUUUUUUUUUUUUUUUACUACCUCUUUUUUUUUUUUUUUUUUUUUUUUUUUUUUU
modifications: guide 5' phosphate; 5-LC-N-U at guide nt 9 and target nt 11
[1]; guide nt 2-9 pair
  binding result: binds

B3: guide N15 / target N15 (dsRNA)
RNA 1: UGAGGUAGUAGGUUGUUUUUUU
RNA 2: UUUUUUUUUUUACAACCUACUACCUCUUUUUUUUUUUUUUUUUUUUUUUUUUUUUUU
modifications: guide 5' phosphate; 5-LC-N-U at guide nt 9 and target nt 11
[2]
  binding result: binds

## UGAGGUAGUAGGUUGUAUAGU (ssRNA, 5' phosphate) [let-7a guide RNA (cryo-EM)]
[3]
  binding result: binds

From article PMC11217426, “RNA-guided RNA silencing by an Asgard archaeal Argonaute”
